Laboratory results reported in PMC11141937 (JCI Insight, 2024).

Key:
[1] = molecular target: SARS-CoV-2 Omicron BA.2 S protein on S-293T cells (SARS-CoV-2 Omicron BA.2, strain); test: flow cytometry on cells; conditions: one partner purified
[2] = molecular target: SARS-CoV-2 Omicron BA.1 S protein on S-293T cells (SARS-CoV-2 Omicron BA.1, strain); test: flow cytometry on cells; conditions: one partner purified
[3] = molecular target: SARS-CoV-2 Delta S protein on S-293T cells (SARS-CoV-2 Delta (B.1.617.2), strain); test: flow cytometry on cells; conditions: one partner purified
[4] = molecular target: SARS-CoV-2 Omicron BA.4/5 S protein on S-293T cells (SARS-CoV-2 Omicron BA.4/5, strain); test: flow cytometry on cells; conditions: one partner purified
[5] = molecular target: SARS-CoV-2 Delta S protein ectodomain (SARS-CoV-2 Delta (B.1.617.2), strain); test: BLI; conditions: both partners purified
[6] = molecular target: SARS-CoV-2 Omicron BA.2 S protein ectodomain (SARS-CoV-2 Omicron BA.2, strain); test: BLI; conditions: both partners purified

Measured: binding result

B1: O5C2 mAb (antibody, V domains shown)
VH: EVQLVESGGGLIQPGGSLRLSCAASGIIVSRNYMSWVRQAPGKGLEWVSILYAGGSSFYAEPVQGRFTVSRDNSKNTLFLEMNSLRVEDTAVYYCARDLQWGIDIWGQGAMVTVSS
VL: DIQMTQTPPSLSASVGDRVSISCRASQSTGSWLAWYQQKPGKAPKLLIYKTSSLESGVPSRFSGSGSGTEFTLTISSLQPDDVATYYCQHYDTYSSTFGQGTKVEIK
binds: all assays above
